Experimental data reported in US9644034B2, “Anti-RSPO2 antibodies and uses thereof” (OncoMed Pharmaceuticals, Inc., priority 2011, dated 2017).

How the values were obtained:
Assay type in all cases: cell-based, human
[1] = system: β-catenin signaling; assay: 6xTCF-luciferase reporter assay in STF-293 cells with lung tumor cell-conditioned medium (LT); conditions: Fc proteins 10 μg/ml, antibodies 40 μg/ml
Description: To prepare cell suspensions, fresh human lung adenocarcinoma xenograft tumors (lung tumor #1 in Table 2) propagated in NOD/SCID mice were minced and digested in medium 199 (Invitrogen, Carlsbad, Calif.) containing 300 U/ml collagenase type 3 (Worthington, Lakewood, N.J.) and 200 U/ml DNase I (Worthington, Lakewood, N.J.) for 1 to 2 hours at 37° C. The lung tumor cells were filtered through a 40 μm nylon strainer (BD Falcon, Franklin Lakes, N.J.), and spun down at 82×g for 5 minutes. Red blood cells were lysed in ACK buffer (0.8% ammonium chloride, 0.1 mM EDTA, 10 mM sodium bicarbonate, […]), washed, and centrifuged at 150×g for 5 minutes in medium consisting of HBSS (Mediatech, Manassas, Va.), 25 mM HEPES buffer (Mediatech, Manassas, Va.) and 2% heat-inactivated fetal bovine serum (HI-FBS; Invitrogen, Carlsbad, Calif.). Dead cells and debris were removed by centrifugation on a cushion of HI-FBS at 82×g for 8 minutes. […]
STF-293 cells are stably transfected with a 6×TCF-luciferase reporter vector. […] The cells were incubated for 16 hours and luciferase activity was measured using Steady-Glo® Luciferase Assay System according to the manufacturer's instructions (Promega, Madison, Wis.). […]

[2] = system: β-catenin signaling; assay: Luciferase assay in STF-293 cells with LU2 cells, lung tumor cell-conditioned medium and Wnt3a-L cell-conditioned medium; conditions: increasing concentrations, 50 to 0.0006 μg/ml
Description: Conditioned medium from human lung tumor LU2 cells was prepared as described in Example 3 and soluble LGR5-Fc was produced as described in Example 2.
STF-293 cells were incubated with LU2 cells plus 25% lung tumor cell-conditioned medium plus 25% Wnt3a-L cell-conditioned medium. Antibody 130M23 and soluble LGR5-Fc were added to the cells in 5-fold serially dilutions from 50 μg/ml to 0.0006 μg/ml. An irrelevant monoclonal antibody, similarly diluted, and a control Fc fusion protein (50 ug/ml) were used as negative controls. The cells were incubated for 20 hours and luciferase activity was measured using Steady-Glo® Luciferase Assay System according to the manufacturer's instructions (Promega, Madison, Wis.).

[3] = system: β-catenin signaling; assay: Co-culture 6xTCF-luciferase assay in STF-293 cells with lung (LU2, LU25) and ovarian (OV38) tumor cells and supernatants; conditions: tumor cells LU2, LU25, OV38; 10 μg/ml
Description: Similar experiments were undertaken using co-culture assays using lung tumor cell-conditioned medium and ovarian tumor cell-conditioned medium. As described above, freshly processed tumor cells depleted of stroma cells were cultured overnight. Culture medium and cells were transferred to STF-293 cells with or without Wnt3a L-cell-conditioned medium. LGR5-Fc fusion protein, a FZD8-Fc fusion protein, or a control Fc fusion protein was added (10 μg/ml). The cells were incubated for 20 hours and luciferase activity was measured as described above.

[4] = system: β-catenin signaling; assay: TOPflash luciferase assay in HEK-293 cells: inhibition of RSPO activity by soluble LGR5; conditions: LGR5-Fc 20 to 0.02 μg/ml; controls 20 μg/ml
Description: Conditioned medium from human lung tumor #1 cells was prepared as described in Example 3 and soluble LGR5-Fc and RSPO2-Fc were produced as described in Example 2.
HEK-293 cells were transfected with a 6×TCF-luciferase reporter vector (TOPflash, Millipore, Billerica, Mass.). After 24-48 hrs, the transfected cells were incubated with medium containing 25% lung tumor cell-conditioned medium plus 25% Wnt3a-L cell-conditioned medium or medium containing RSPO2 (1 Ong/ml) plus 25% Wnt3a-L cell-conditioned medium. Soluble LGR5 was added to the cells in 4-fold serially dilutions at 20 μg/ml to 0.02 μg/ml. Soluble Jag-Fc protein was used as a negative control at 20 μg/ml and FZD8-Fc protein was used as a positive control at 20 μg/ml. The cells were incubated for 16 hours and luciferase activity was measured using Steady-Glo® Luciferase Assay System according to the manufacturer's instructions (Promega, Madison, Wis.).

B1: LGR5-Fc: soluble fusion protein: amino acids 22-564 of human LGR5 ligated to human Fc (protein)
chain: GSSPRSGVLLRGCPTHCHCEPDGRMLLRVDCSDLGLSELPSNLSVFTSYLDLSMNNISQLLPNPLPSLRFLEELRLAGNALTYIPKGAFTGLYSLKVLMLQNNQLRHVPTEALQNLRSLQSLRLDANHISYVPPSCFSGLHSLRHLWLDDNALTEIPVQAFRSLSALQAMTLALNKIHHIPDYAFGNLSSLVVLHLHNNRIHSLGKKCFDGLHSLETLDLNYNNLDEFPTAIRTLSNLKELGFHSNNIRSIPEKAFVGNPSLITIHFYDNPIQFVGRSAFQHLPELRTLTLNGASQITEFPDLTGTANLESLTLTGAQISSLPQTVCNQLPNLQVLDLSYNLLEDLPSFSVCQKLQKIDLRHNEIYEIKVDTFQQLLSLRSLNLAWNKIAIIHPNAFSTLPSLIKLDLSSNLLSSFPITGLHGLTHLKLTGNHALQSLISSENFPELKVIEMPYAYQCCAFGVCENAYKISNQWNKGDNSSMDDLHKKDAGMFQAQDERDLEDFLLDFEEDLKALHSVQCSPSPGPFKPCEHLLDGWLIRIGV
modifications: left off: a dimerising Fc or GST
notes: soluble fusion protein: amino acids 22-564 of human LGR5 ligated to human Fc
[1]; LT plus Wnt3a L-cell-conditioned medium
  inhibition of the LT activity potentiating Wnt3a-induced β-catenin activity: inhibited
[1]; absence of Wnt3a
  inhibition of LT medium-induced β-catenin signaling: reducing the response to almost control levels
[2]
  induction of luciferase activity by lung tumor cell-conditioned medium and Wnt3a-conditioned medium: reduced
[3]
  reduction of tumor-derived β-catenin activity: strongly reduced
[4]
  induction of luciferase activity by RSPO2-Fc plus Wnt3a-conditioned medium: reduced
  induction of luciferase activity by lung tumor cell-conditioned medium and Wnt3a-conditioned medium: reduced
